Target: Bmp8
Assay: SEC

Q: How did the stoichiometry N turn out when Bmp8 (enzyme) was run?
A: 2
